Data from a protein production outcome set (Wang et al. 2014).

Assay: label from the status in PepcDB records

Row | Sequence | protein production
1 | MPGDTENTSTDTTNEHIDLALYRQLVKQFIDMRRYSTALFWAEKVAVLGGLEPRDIYYQAQCMYLLGEYHRAAHTIQHHKLEKNSLPCFNLLLESLYAAKEFTEAANVIQNVEVEVMTTSLINQPVDASSGCYLESNSVFGGEENHRNELLSSIYLMKGKVYEALDNRGMAMDFYVQALHKSIYCFEALEALVQHEMLMAWEEFELMHHLPLAQQSSEADAKFILKLYESRLKKYYELISARNAEEMSPIVNPDILQFIKEFTARVQQSGSSDTQMPKVSAVKVPLTPSQFMSPAQKVLEDLKAPTFSLQTSLSKASSLIDASHRSMFDSSSRRRSRDHDTDTLIPIAECLDRVQRSTDLMAAEAEKCFYDCDYKQCLKILNELLKVDPFHNTALTIQIACLVENGDFNRLFYVAHKLVDRYPDKAISWYAVGCYYDMIGKSDPARRYLSKATALDRLYGPAWLAYGHSFANENEHEQAMAAYFKATQLMRGCHLPLLYIGVECGLTKNLELAEKFFLQAMNIAPLDVYVLHELGVIKYEYEFFDGAATIFQCTVDIVKQRAKSNNEEISSRWEPLFINLGHSLRKVHKYEEALYNFQYALLLKPQSPTTYTSIGFIHALLGNLDPAIEAFHKSLALNRDCIVTSTILKSCIEDLMDDSATIDEICSAALRDVAKNITANSRRVLNSDKFNGMKLKFDEEEEFANSDSNMVVEMSFDT | failed
2 | MPGEEVSQAKQQLKLIIDAYLSESDVDNVLAACDFADLAHSGITRKSGEPYILHPIAVSCILAHMRLDAETLMAALLHDVIEDTEHTKDEIGERFGEVVADLVDGVTKLTHSSDKQYNKAASFRKILQATLQDPRVIIIKLADRYHNMTTLDALRPDKRARIAQETFDIFVPMARIVGMNEMGDNLELLCYQNLDLDMYNNVQEALLETKPRRCEYQTKWEHHLGELLTTYHIHGRVKKKNNNIELLRHFVKNEIDLQELTHSHAFEIILNSISDCDRLVDALKENFQILHFEDHIRRPLPGGNQSIMMKLKGEQTTLSLTIQTELMRKAARFGVVLGENAPQACRSAIQASMQNLTTLIDGECAKTTFNDLLDYLHQEKIWVYTPHGHLHELPQGATVIDFAYSASLFLGNHAVGAKIDGEIRPLSTPLVSGQVIDVITDVLATPNPDWLSFINTQKARRAIQNMLRDQDIEEQLLVGQQALNRALKLFNRSMHDLSESDWLNVLQWRHVENKEALFEQIAVGDLLPQLVANHLYAQDTSDKTGHAPDRLIQGTEGVDVKYAHCCNPILGDPIQGHLSRRGLIVHRARCHNLLHEQHLHPENIMPLQWTSDDLDDVSFTAYLCIDMPLDGEQISELIYLCRKSHTGVEMVQPHGDHTYVNIVVNNRKVVAQIIRDLRMLFGFPRVSRLFTPAAVTESVKIKVS | failed
3 | MPGESNIIEWPASRVRVISGASWSRNGQILSGRCKANNGTWFGITKGGRVAFLVNTSLLLDRVKSYSGSELYPVRFLEGNMSPEQFANEVKVHEKETNERHAYSLVVADMTSSSMVHILKPSDTKSDVVIETVPFGVHTLSSYEGLDSTDSARDLLLRRLFTQMVGNLGNVQQRQMEEIAGRFMYDAQAGRDAVFYHSRDEHPNGKLGTQRFGTTSTTALVVKRTREVMLFEKYMEQNGAWNTNNFAFNIQKQQKLYPNLDKEALKRVGVFALEEVNNHEHDIHPDLMPSFFEDDMLKVKFNEMIARHAKLPPIKNIVEDLMMKSPFFIDSVDGAGKKVRYRTVRTLGMDIKANRPQGRFYERHLNDNGEWVG | failed
4 | MPGIKVHPNESFDEAYRKFKKQVDRNLVVTEVRARRFFEPMTEIRKKQKISARKKMLKRLYMLRRYESRLLEHHHHHH | failed
5 | MPGKLTATILTRNEAANIGDCIDSLAQLADEVIVLDSGSTDATRDIARARGANVIEDDGPWPGFGPQKNRALDRATGEWVLSIDADERVPPELAQEIRTAMARADADAYAIPRLSQFCGAWVHHSGWRPDHVIRLFRRGKARFSENLVHESLQVTGNVARLRTSLLHYSYTSMDQVHRKSAQYAEAGARDLTQRGKHIGALSPVLHGTWAFVRTLVLRRGFLDGGTGLAIARMNATVSYRKYRRARELASGANHRPLEHHHHHH | failed
6 | MPGSALKYRDLRDFLAQLERQGELKRITAPVSTRLEMTEIADRVLRAGGPALLFENARHNDAPADMPVLANLFGTPRRVAWGMGADDVGALRETGELLASLREPEAPKGLRDALAKVSMLKAALWDMSPKTVRSAACQEIVWEGADVELSRLPIQTCWPGDVAPLLAWGLVITRGPNARRQNLGIYRQQPLGPNKLIMRWLSHRGGALDFRDHAQAHPGKPFPITVALGADPATILGAVTPVPDTLSEYQFAGLLRGSRTEVVKALGSDLSVPASAEIVLEGHLLPADDPRAVAAVVPEGANPPPATGYEMALEGPYGDHTGYYNEQDWFPVFTVDRITMRRNPIYHSTYTGKPPDEPAVLGVALNEVFVPLLRRQLPEIVDFYLPPEGCSYRLAVVSIRKQYAGHAKRVMFGLWSVLRQFMYTKFIVVVDEDIDPRDWTEVVWAMTTRMDPVRDTVLVENAPIDYLDFASPVSGLGGKMGLDATNKWPGETSREWGTPIHMDEAVKRRVDAMWDTLGLLEHHHHHH | failed
7 | MPGTKQVNVGSLKVGQYVMIDGVPCEIVDISVSKPGKHGGAKARVVGIGIFEKVKKEFVAPTSSKVEVPIIDRRKGQVLAIMGDMVQIMDLQTYETLELPIPEGIEGLEPGGEVEYIEAVGQYKITRVIGGK | not failed
8 | MPHASQIVISISLFLMSMVAVAQKTIDIKKFNLVAEQVTELKKTDLVLSLKQLTTFENVLSALTVEQNLVYFKLLAEIQIEQNRYSAAKKTANEGLIIGRRLASPSILMSELLYLRGFSFESLGNIPRATKEYKKGLEVAESLHNKIQVALGLINLGAIAYLTDNYKRSLVLLNDAYNIAGQTDDEELKGTANTELGILYSLLRQGDQSMAYYQQSYKHFKKAGLLLSAHNSLHNIAITHIREKRYEQAITVFKTIIAESNKDTSSDSMFTVYSGMAWAHLKKKDSNIDAAHQYLLLAKQYLQFTEKVDYRLQFYFDEASVLYKLERFDEVLISIARIEKILVNHEDMPKRKRKGYVNIINLKAKVFYKQEKFKQAYETKSRVIALTEKLYENEDNRSIAQVRLKLEAEQADKQNEILNNQKSRYEASFNEAKLENEEQRIYLIISALLALAFAWVLVKLIQSQKKLKVALNVDKLTGTANRRRLMVKSQQAFELAKVKQYHLSLMMINIDHFKGINDSLGHSIGDEVLAKVAFIGANMVRKNDVFGRFSGGEFMVCLPKTNLKLAMETAECIRAAINEHTWQLNNIEKISVSIGVATLTDDSELISLVKRAEEQLYQAKASGKNKVCAQ | failed
9 | MPHELSWGDIYFSPTLLVLFLAVTATWITVMILNKTRLSRFIAFPSLTFIAIMVGYVVAIDSFYIQF | failed
10 | MPHFLAKLDFKPLEYPLIEGDFCFHREFLSLKNPTKSCVYASFKDRIFLLQKIRRANDFLIKSEKATPLKREVLKQALRIYSQSFEVISHNLQENSKHASGKKTLDLGTFEDFIQKNQAPILIEIGFGSGRHLIELAKNNPTKTCLGIEIHTPSIAQALKQIELLDLKNLHILQGDGRLVLESMPNHRCEKIFVHFPVPWNEKKHRRVLSEKFLNEALRVLKPRGFLELRTDDSLYFEDSLKLALKNFQCEIEIKKNAQIPVVSKYEARWNKLKKDIYDLRIYSLEWNETPFDNHAFDFSFDTITISKKSVGTILKTKKIIQEGYFVHVCNIYENKGDFLVELSMGDFDWPVRLFVLLTENQIFYLNKSPLKTLNNHKAHLLLQNILSQKGIG | failed
11 | MPHGVEVEPGVAKLTTYASKQATDMGAIYVNSKGDRIVNESNVYTTFRNAILKQADKVAYLVMDERTWKKVYDLLILHDFTPEEIKSFFENKGKRPVFVKGSLESAAEQAGIVVDELVQTVKNYQGYVQDGHDHDFGRDPKYLHQFEGETFYIIEQRLEHHHHHH | not failed
12 | MPHPATMFLLLTMAVVFLSWICDIYGLKVTLPQSGEDIRVQSLLSPEGIRWWLRNAIKNFTGFAPLGMVIIAMFGLGVAQHSGFIDACIRLGVGNRKEKRKVILWVIVLGLLSNVIGDGGYIILLPIAAMLFQWVGLHPIAGIVTAYVSVACGYSANIVLSTMDPLLAHTTQEAALTLMGYQGNTEPLCNYFFMSASTVVITGIVYWVTQKWLLPNLGKYEGSVKVEAYRPLSRKERRALMVAVVVAGIYVALILWLTFSSYGILRGVNGGLMHSPFIAGILFLLSLGAGFTGMAYGFSSGRYRSDNDVIEGLTQPIKLLGVYFVIAFFAAQMFACFEYSHLDKCLAIMGADLLSSFEPAPLSALILFILFTAFINLIMVSATSKWAFMSFIFIPMFAQMGISPDVTQCAFRIGDSSTNAITPFLFYMPLVLTYMRQYDKQITYGSLLKYTWRYSLCILAAWTLLFIVWYLLKIPMGL | failed
13 | MPHRCAAQVVAGYRSTVSLVLVEHPRPEIAQITLNRPERMNSMAFDVMVPLKEALAQVSYDNSVRVVVLTGAGRGFSPGADHKSAGVVPHVENLTRPTYALRSMELLDDVILMLRRLHQPVIAAVNGPAIGGGLCLALAADIRVASSSAYFRAAGINNGLTASELGLSYLLPRAIGSSRAFEIMLTGRDVSAEEAERIGLVSRQVPDEQLLDACYAIAARMAGFSRPGIELTKRTLWSGLDAASLEAHMQAEGLGQLFVRLLTANFEEAVAARAEQRAPVFTDDT | failed
14 | MPIGFLRSLTARHRNPVSNRRLARVLCFVAGAANAGGFLAVQQYTSHMSGIVSAIADDLVLQRYGLVVHGIGALASFLAGAGTTAILVNWARRARLRSEYAIPLLVEATLLLCFGLLGSHLNDMDWLFVPATVMLLCFMMGLQNALITKLSNAEIRTTHVTGMVTDIGIELGKLFYWNAAVRPNSRPVMADRHKLRLLTVLVGMFLVGGIVGAQAFSTLGYAATLPLAALLLIVAIIPVADDLLTRLLLRVHRADSARRARRWGARGR | failed
15 | MPIHIGSSIPLMVEKMLTEMVKPSKHIPQQTLNLSTLDNDPYNEVIYKACYVFKAKNVADDDNRPEALLREALSDLLGYYYPLSGSLKRQESDRKLQLSCGGDGGGVPFTVATANVELSSLKNLENIDSDTALNFLPVLHVDIDGYRPFALQVTKFECGGFILGMAMSHAMCDGYGEGHIMCALTDLAGGKKKPMVTPIWERERLVGKPEDDQPPFVPGDDTAASPYLPTDDWVTEKITIRADSIRRLKEATLKEYDFSNETITTFEVIGAYLWKSRVKALNLDRDGVTVLGLSVGIRNVVDPPLPDGYYGNAYIDMYVPLTAREVEEFTISDIVKLIKEAKRNAHDKDYLQEELANTEKIIKMNLTIKGKKDGLFCLTDWRNIGIFGSMDFGWDEPVNIVPVVPSETARTVNMFMRPSRLESDMVGGVQIVVTLPRIAMVKFKEEMEALE | failed
16 | MPIITKNTDTTCQTPPLLSIICPAYNQEAFVAQALDGFLSQQTRFNYEILINDDASTDGTARIIAQYAERHPTIIRAFYQQVNQYSQGLPCVPDLFAEARGRYIAYCEADDYWTDPRKLQLQVDFLESHPDYVITYHDAVAFDENGEYGVQLQGHLRADATALELQQARRLSTLTTCFRNVFSTMPPELNIRVAPLNDMCWWSLLGAHGKGKFMADIKPAAYRLHAGGVFSMRSDKRKLHMNLQTCSSLANYYNLQGNQALYEYFLMQTVCLSLAALTPSHKLQTLWQVASNVVVNLGRRLLPTTGKAHVQ | failed
17 | MPINTLESSPWRGSRHDFCRERLEPLLDQAGIRINGDRPWDIRVHDPAFFRRMFADASLGLGESYVDGWWDCDRIDEFICRIIRAGLADRFRSWRDAVAALQARLFNLQHAARAFHVGQRHYDIGNDLYGCMLDRRMIYSCGYWKDATTLDEAQEAKLDLVFRKIGLEPGMRVLDIGCGWGGAARFAAEKYGVEVYGVTVSAEQARYAREICQGLPVTIELKDYRDIEGHFDRAYSLGMFEHVGCKNYGTYMKLVADRLPDDGLFLLHTIGINTSDNHGNPWVDRYIFPNSMLPSIAQIGTATENRLVMEDWQNFGPDYDRTLLTWYDRFEWHWPSLRPRYGDRFYRMWRFYLLSFAGAFRARYIQLWQIVLSPKGLTRRYDAPR | failed
